Data from publication PMC4432310, “Different Ligands of the TRPV3 Cation Channel Cause Distinct Conformational Changes as Revealed by Intrinsic Tryptophan Fluorescence Quenching*” (The Journal of Biological Chemistry, 2015).

B1: human TRPV3 fused to C-terminal GFP and His8 tag (natural protein, UniProt Q8NET8 1-790, looked up)
chain: MKAHPKEMVPLMGKRVAAPSGNPAILPEKRPAEITPTKKSAHFFLEIEGFEPNPTVAKTSPPVFSKPMDSNIRQCISGNCDDMDSPQSPQDDVTETPSNPNSPSAQLAKEEQRRKKRRLKKRIFAAVSEGCVEELVELLVELQELCRRRHDEDVPDFLMHKLTASDTGKTCLMKALLNINPNTKEIVRILLAFAEENDILGRFINAEYTEEAYEGQTALNIAIERRQGDIAALLIAAGADVNAHAKGAFFNPKYQHEGFYFGETPLALAACTNQPEIVQLLMEHEQTDITSRDSRGNNILHALVTVAEDFKTQNDFVKRMYDMILLRSGNWELETTRNNDGLTPLQLAAKMGKAEILKYILSREIKEKRLRSLSRKFTDWAYGPVSSSLYDLTNVDTTTDNSVLEITVYNTNIDNRHEMLTLEPLHTLLHMKWKKFAKHMFFLSFCFYFFYNITLTLVSYYRPREEEAIPHPLALTHKMGWLQLLGRMFVLIWAMCISVKEGIAIFLLRPSDLQSILSDAWFHFVFFIQAVLVILSVFLYLFAYKEYLACLVLAMALGWANMLYYTRGFQSMGMYSVMIQKVILHDVLKFLFVYIVFLLGFGVALASLIEKCPKDNKDCSSYGSFSDAVLELFKLTIGLGDLNIQQNSKYPILFLFLLITYVILTFVLLLNMLIALMGETVENVSKESERIWRLQRARTILEFEKMLPEWLRSRFRMGELCKVAEDDFRLCLRINEVKWTEWKTHVSFLNEDPGPVRRTDFNKIQDSSRNNSKTTLNAFEEVEEFPETSV
notes: human TRPV3 (transient receptor potential vanilloid 3), full-length; theoretical mass of the monomer printed as 90.6 kDa; A PreScission cleavage site lies between TRPV3 and GFP-His8; The fusion is uncleaved in the FSEC runs; also called hTRPV3-GFP; hTRPV3; source: Sf9 insect cells (baculovirus), detergent-solubilized crude membranes, not purified; not shown: GFP, C-terminal, kept
B2: human TRPV3, detergent-purified, GFP-His tag cleaved off (natural protein, UniProt Q8NET8 1-790, looked up)
chain: B1 chain
notes: human TRPV3 (transient receptor potential vanilloid 3), full-length; theoretical mass of the monomer printed as 90.6 kDa; also called hTRPV3; detergent-purified hTRPV3; source: Sf9 insect cells (baculovirus), purified (GFP trap, PreScission cleavage, SEC) in DDM and CHAPS; not shown: GFP, C-terminal, cleaved; His8, C-terminal, cleaved

Columns and labels:
[1] = biological target: the molecule itself; test: SEC; fluorescence detection SEC (FSEC) of detergent-solubilized crude Sf9 membranes on Superose 6 10/300 GL; buffer A (200 mM NaCl, 50 mM Tris, pH 7.5) with DM, DDM or LDAO at ~1.5 x CMC; oligomer judged from the retention volume
[2] = biological target: the molecule itself; test: SEC; UV detection SEC of hTRPV3 eluted from the GFP trap, Superose 6 10/300 GL; buffer B (100 mM NaCl, 10 mM Tris, pH 7.5) with 0.03% DDM and 0.1% CHAPS

Row | Protein | stoichiometry N [1] | stoichiometry N [2]
1 | B1 | 4 | 
2 | B2 |  | 4
